*1 amine or outer side, *2 acyl side, *3 side chain or, on linkers, in order; H or OH if unused. Side-chain parts run from the residue outwards. The star is where a group is joined. C18 diacid = O=C(O)CCCCCCCCCCCCCCCCC(=O)*; γGlu = O=C(O)[C@H](CCC(=O)[*:2])N[*:1]; Isovaleryl = CC(C)CC(=O)*; Ahx = NCCCCCC(=O)O
Molecular target: T1, human NPY2 receptor (human, UniProt P49146 1-381)
T1 construct: whole, on cells; also called hNPY2-R; hNPY2R
T1 sequence (looked up): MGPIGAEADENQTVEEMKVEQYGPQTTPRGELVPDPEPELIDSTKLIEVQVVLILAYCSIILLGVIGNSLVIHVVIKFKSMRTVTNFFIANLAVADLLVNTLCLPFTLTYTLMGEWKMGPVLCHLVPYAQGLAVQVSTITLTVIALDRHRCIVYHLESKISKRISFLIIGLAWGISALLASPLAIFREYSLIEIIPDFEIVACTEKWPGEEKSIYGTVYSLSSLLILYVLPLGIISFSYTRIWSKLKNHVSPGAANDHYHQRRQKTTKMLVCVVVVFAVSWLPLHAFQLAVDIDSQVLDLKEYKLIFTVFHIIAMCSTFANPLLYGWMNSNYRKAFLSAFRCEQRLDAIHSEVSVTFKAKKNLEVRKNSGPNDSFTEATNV
Assay: RLB: displacement of 125I-PYY(1-36) from hNPY2R membranes
Method: The filtration RLB assay was carried out in 96-well plates in a final volume of 100 μl per well. Freeze-dried test peptides were dissolved in 100% dimethyl sulfoxide (DMSO) to stock solutions of 1 mM and serial dilutions were performed in assay buffer (50 mM HEPES, 5 mM MgCl₂, 1 mM CaCl₂), pH 7.4) containing 0.2% ovalbumin. […] Next, 80 μL membranes (HTS066M, ChemiSCREEN™ Human Neuropeptide Y2 Receptor Membrane Preparation, CHEMICON) were added to each well to give a final protein concentration of 0.5 μg/well. The plates were sealed and incubated at room temperature for 2 hours in a plate shaker set at 400 rpm. The incubation was stopped by vacuum filtration onto 0.5% polyethylene amine (PEI) presoaked GF/C filters using a 96-well FilterMate™ harvester (Perkin Elmer) followed by four washes with 300 μl/well ice-cold wash buffer (50 mM HEPES, 500 mM NaCl, pH7.4). Filter plates were then dried for 60 min at room temperature and the bottom of the plates was sealed with backing tape UniFilter-96. Finally, 50 μl/well scintillation counter cocktail (Microscint20, Packard) was added and the radioactivity was counted in the Packard TopCount NXT scintillation counter. IC₅₀ values (the half maximal inhibitory concentration of the agonist) were calculated by nonlinear regression analysis of sigmoidal dose-response curves.

B1: Compound 22 (peptide)
peptide: Isovaleryl-APEK([Ahx-γGlu-C18 diacid])PEEDPTPEELQRYYVSLRHYYNWLTRQRY-NH2
SMILES: CC(C)CC(=O)N[C@@H](C)C(=O)N1CCC[C@H]1C(=O)N[C@@H](CCC(=O)O)C(=O)N[C@@H](CCCCNC(=O)CCCCCNC(=O)CC[C@H](NC(=O)CCCCCCCCCCCCCCCCC(=O)O)C(=O)O)C(=O)N1CCC[C@H]1C(=O)N[C@@H](CCC(=O)O)C(=O)N[C@@H](CCC(=O)O)C(=O)N[C@@H](CC(=O)O)C(=O)N1CCC[C@H]1C(=O)N[C@H](C(=O)N1CCC[C@H]1C(=O)N[C@@H](CCC(=O)O)C(=O)N[C@@H](CCC(=O)O)C(=O)N[C@@H](CC(C)C)C(=O)N[C@@H](CCC(N)=O)C(=O)N[C@@H](CCCNC(=N)N)C(=O)N[C@@H](Cc1ccc(O)cc1)C(=O)N[C@@H](Cc1ccc(O)cc1)C(=O)N[C@H](C(=O)N[C@@H](CO)C(=O)N[C@@H](CC(C)C)C(=O)N[C@@H](CCCNC(=N)N)C(=O)N[C@@H](Cc1c[nH]cn1)C(=O)N[C@@H](Cc1ccc(O)cc1)C(=O)N[C@@H](Cc1ccc(O)cc1)C(=O)N[C@@H](CC(N)=O)C(=O)N[C@@H](Cc1c[nH]c2ccccc12)C(=O)N[C@@H](CC(C)C)C(=O)N[C@H](C(=O)N[C@@H](CCCNC(=N)N)C(=O)N[C@@H](CCC(N)=O)C(=O)N[C@@H](CCCNC(=N)N)C(=O)N[C@@H](Cc1ccc(O)cc1)C(N)=O)[C@@H](C)O)C(C)C)[C@@H](C)O
- Ki: 4.98 nM

B2: Compound 24 (peptide)
peptide: Isovaleryl-APEK([Ahx-γGlu-C18 diacid])PEEDSSPEELQRYYVALRHYYNWLTRQRY-NH2
SMILES: CC(C)CC(=O)N[C@@H](C)C(=O)N1CCC[C@H]1C(=O)N[C@@H](CCC(=O)O)C(=O)N[C@@H](CCCCNC(=O)CCCCCNC(=O)CC[C@H](NC(=O)CCCCCCCCCCCCCCCCC(=O)O)C(=O)O)C(=O)N1CCC[C@H]1C(=O)N[C@@H](CCC(=O)O)C(=O)N[C@@H](CCC(=O)O)C(=O)N[C@@H](CC(=O)O)C(=O)N[C@@H](CO)C(=O)N[C@@H](CO)C(=O)N1CCC[C@H]1C(=O)N[C@@H](CCC(=O)O)C(=O)N[C@@H](CCC(=O)O)C(=O)N[C@@H](CC(C)C)C(=O)N[C@@H](CCC(N)=O)C(=O)N[C@@H](CCCNC(=N)N)C(=O)N[C@@H](Cc1ccc(O)cc1)C(=O)N[C@@H](Cc1ccc(O)cc1)C(=O)N[C@H](C(=O)N[C@@H](C)C(=O)N[C@@H](CC(C)C)C(=O)N[C@@H](CCCNC(=N)N)C(=O)N[C@@H](Cc1c[nH]cn1)C(=O)N[C@@H](Cc1ccc(O)cc1)C(=O)N[C@@H](Cc1ccc(O)cc1)C(=O)N[C@@H](CC(N)=O)C(=O)N[C@@H](Cc1c[nH]c2ccccc12)C(=O)N[C@@H](CC(C)C)C(=O)N[C@H](C(=O)N[C@@H](CCCNC(=N)N)C(=O)N[C@@H](CCC(N)=O)C(=O)N[C@@H](CCCNC(=N)N)C(=O)N[C@@H](Cc1ccc(O)cc1)C(N)=O)[C@@H](C)O)C(C)C
- Ki: 3.39 nM

B3: Compound 25 (peptide)
peptide: Isovaleryl-APEK([Ahx-γGlu-C18 diacid])PEADATPEELQRYYISLRHYYNWLTRQRY-NH2
SMILES: CC[C@H](C)[C@H](NC(=O)[C@H](Cc1ccc(O)cc1)NC(=O)[C@H](Cc1ccc(O)cc1)NC(=O)[C@H](CCCNC(=N)N)NC(=O)[C@H](CCC(N)=O)NC(=O)[C@H](CC(C)C)NC(=O)[C@H](CCC(=O)O)NC(=O)[C@H](CCC(=O)O)NC(=O)[C@@H]1CCCN1C(=O)[C@@H](NC(=O)[C@H](C)NC(=O)[C@H](CC(=O)O)NC(=O)[C@H](C)NC(=O)[C@H](CCC(=O)O)NC(=O)[C@@H]1CCCN1C(=O)[C@H](CCCCNC(=O)CCCCCNC(=O)CC[C@H](NC(=O)CCCCCCCCCCCCCCCCC(=O)O)C(=O)O)NC(=O)[C@H](CCC(=O)O)NC(=O)[C@@H]1CCCN1C(=O)[C@H](C)NC(=O)CC(C)C)[C@@H](C)O)C(=O)N[C@@H](CO)C(=O)N[C@@H](CC(C)C)C(=O)N[C@@H](CCCNC(=N)N)C(=O)N[C@@H](Cc1c[nH]cn1)C(=O)N[C@@H](Cc1ccc(O)cc1)C(=O)N[C@@H](Cc1ccc(O)cc1)C(=O)N[C@@H](CC(N)=O)C(=O)N[C@@H](Cc1c[nH]c2ccccc12)C(=O)N[C@@H](CC(C)C)C(=O)N[C@H](C(=O)N[C@@H](CCCNC(=N)N)C(=O)N[C@@H](CCC(N)=O)C(=O)N[C@@H](CCCNC(=N)N)C(=O)N[C@@H](Cc1ccc(O)cc1)C(N)=O)[C@@H](C)O
- Ki: 1.55 nM

B4: Compound 27 (peptide)
peptide: Isovaleryl-APEK([Ahx-γGlu-C18 diacid])PEEDAEPEESQRYYVSLRHYYNWLTRQRY-NH2
SMILES: CC(C)CC(=O)N[C@@H](C)C(=O)N1CCC[C@H]1C(=O)N[C@@H](CCC(=O)O)C(=O)N[C@@H](CCCCNC(=O)CCCCCNC(=O)CC[C@H](NC(=O)CCCCCCCCCCCCCCCCC(=O)O)C(=O)O)C(=O)N1CCC[C@H]1C(=O)N[C@@H](CCC(=O)O)C(=O)N[C@@H](CCC(=O)O)C(=O)N[C@@H](CC(=O)O)C(=O)N[C@@H](C)C(=O)N[C@@H](CCC(=O)O)C(=O)N1CCC[C@H]1C(=O)N[C@@H](CCC(=O)O)C(=O)N[C@@H](CCC(=O)O)C(=O)N[C@@H](CO)C(=O)N[C@@H](CCC(N)=O)C(=O)N[C@@H](CCCNC(=N)N)C(=O)N[C@@H](Cc1ccc(O)cc1)C(=O)N[C@@H](Cc1ccc(O)cc1)C(=O)N[C@H](C(=O)N[C@@H](CO)C(=O)N[C@@H](CC(C)C)C(=O)N[C@@H](CCCNC(=N)N)C(=O)N[C@@H](Cc1c[nH]cn1)C(=O)N[C@@H](Cc1ccc(O)cc1)C(=O)N[C@@H](Cc1ccc(O)cc1)C(=O)N[C@@H](CC(N)=O)C(=O)N[C@@H](Cc1c[nH]c2ccccc12)C(=O)N[C@@H](CC(C)C)C(=O)N[C@H](C(=O)N[C@@H](CCCNC(=N)N)C(=O)N[C@@H](CCC(N)=O)C(=O)N[C@@H](CCCNC(=N)N)C(=O)N[C@@H](Cc1ccc(O)cc1)C(N)=O)[C@@H](C)O)C(C)C
- Ki: 10.5 nM

B5: Compound 28 (peptide)
peptide: Isovaleryl-APEK([Ahx-γGlu-C18 diacid])PPEDATPEEIQRYYVSLRHYYNWLTRQRY-NH2
SMILES: CC[C@H](C)[C@H](NC(=O)[C@H](CCC(=O)O)NC(=O)[C@H](CCC(=O)O)NC(=O)[C@@H]1CCCN1C(=O)[C@@H](NC(=O)[C@H](C)NC(=O)[C@H](CC(=O)O)NC(=O)[C@H](CCC(=O)O)NC(=O)[C@@H]1CCCN1C(=O)[C@@H]1CCCN1C(=O)[C@H](CCCCNC(=O)CCCCCNC(=O)CC[C@H](NC(=O)CCCCCCCCCCCCCCCCC(=O)O)C(=O)O)NC(=O)[C@H](CCC(=O)O)NC(=O)[C@@H]1CCCN1C(=O)[C@H](C)NC(=O)CC(C)C)[C@@H](C)O)C(=O)N[C@@H](CCC(N)=O)C(=O)N[C@@H](CCCNC(=N)N)C(=O)N[C@@H](Cc1ccc(O)cc1)C(=O)N[C@@H](Cc1ccc(O)cc1)C(=O)N[C@H](C(=O)N[C@@H](CO)C(=O)N[C@@H](CC(C)C)C(=O)N[C@@H](CCCNC(=N)N)C(=O)N[C@@H](Cc1c[nH]cn1)C(=O)N[C@@H](Cc1ccc(O)cc1)C(=O)N[C@@H](Cc1ccc(O)cc1)C(=O)N[C@@H](CC(N)=O)C(=O)N[C@@H](Cc1c[nH]c2ccccc12)C(=O)N[C@@H](CC(C)C)C(=O)N[C@H](C(=O)N[C@@H](CCCNC(=N)N)C(=O)N[C@@H](CCC(N)=O)C(=O)N[C@@H](CCCNC(=N)N)C(=O)N[C@@H](Cc1ccc(O)cc1)C(N)=O)[C@@H](C)O)C(C)C
- Ki: 0.49 nM

B6: Compound 29 (peptide)
peptide: Isovaleryl-APEK([Ahx-γGlu-C18 diacid])PEADSSPEELQRYYVSLRHYYNWLTRQRY-NH2
SMILES: CC(C)CC(=O)N[C@@H](C)C(=O)N1CCC[C@H]1C(=O)N[C@@H](CCC(=O)O)C(=O)N[C@@H](CCCCNC(=O)CCCCCNC(=O)CC[C@H](NC(=O)CCCCCCCCCCCCCCCCC(=O)O)C(=O)O)C(=O)N1CCC[C@H]1C(=O)N[C@@H](CCC(=O)O)C(=O)N[C@@H](C)C(=O)N[C@@H](CC(=O)O)C(=O)N[C@@H](CO)C(=O)N[C@@H](CO)C(=O)N1CCC[C@H]1C(=O)N[C@@H](CCC(=O)O)C(=O)N[C@@H](CCC(=O)O)C(=O)N[C@@H](CC(C)C)C(=O)N[C@@H](CCC(N)=O)C(=O)N[C@@H](CCCNC(=N)N)C(=O)N[C@@H](Cc1ccc(O)cc1)C(=O)N[C@@H](Cc1ccc(O)cc1)C(=O)N[C@H](C(=O)N[C@@H](CO)C(=O)N[C@@H](CC(C)C)C(=O)N[C@@H](CCCNC(=N)N)C(=O)N[C@@H](Cc1c[nH]cn1)C(=O)N[C@@H](Cc1ccc(O)cc1)C(=O)N[C@@H](Cc1ccc(O)cc1)C(=O)N[C@@H](CC(N)=O)C(=O)N[C@@H](Cc1c[nH]c2ccccc12)C(=O)N[C@@H](CC(C)C)C(=O)N[C@H](C(=O)N[C@@H](CCCNC(=N)N)C(=O)N[C@@H](CCC(N)=O)C(=O)N[C@@H](CCCNC(=N)N)C(=O)N[C@@H](Cc1ccc(O)cc1)C(N)=O)[C@@H](C)O)C(C)C
- Ki: 1.36 nM
